The supplement of paper PMC10567573

B1: SFRS1 (parent)
chain: YSPRRSRGSPRYSPRHSRSRSRT

Variants of: B1
Test: protein stability index of a GFP-peptide fusion (GPS, HEK-293T) (PSI 1-6); higher = more stable
Conditions: c terminus: native
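Also: lentivirally expressed fusions sorted by FACS into six bins by GFP to DsRed ratio, PSI derived from sequencing read proportions per bin multiplied by bin number.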

| Variant | protein stability index |
| --- | --- |
| YSPRKSRGSPRYSPRHSRSRSRT [R5K] | 3.14 |
| YSPRLSRGSPRYSPRHSRSRSRT [R5L] | 2.58 |
| YSPRMSRGSPRYSPRHSRSRSRT [R5M] | 3.58 |
| YSPRNSRGSPRYSPRHSRSRSRT [R5N] | 3.24 |
| YSPRPSRGSPRYSPRHSRSRSRT [R5P] | 2.75 |
| YSPRQSRGSPRYSPRHSRSRSRT [R5Q] | 3.5 |
| YSPRSSRGSPRYSPRHSRSRSRT [R5S] | 3.76 |
| YSPRTSRGSPRYSPRHSRSRSRT [R5T] | 2.8 |
| YSPRVSRGSPRYSPRHSRSRSRT [R5V] | 2.87 |
| YSPRWSRGSPRYSPRHSRSRSRT [R5W] | 1.84 |
| YSPRYSRGSPRYSPRHSRSRSRT [R5Y] | 3.01 |
| YSPRRARGSPRYSPRHSRSRSRT [S6A] | 4.13 |
| YSPRRCRGSPRYSPRHSRSRSRT [S6C] | 2.81 |
| YSPRRDRGSPRYSPRHSRSRSRT [S6D] | 3.83 |
| YSPRRERGSPRYSPRHSRSRSRT [S6E] | 3.26 |
| YSPRRFRGSPRYSPRHSRSRSRT [S6F] | 3.27 |
| YSPRRGRGSPRYSPRHSRSRSRT [S6G] | 3.55 |
| YSPRRHRGSPRYSPRHSRSRSRT [S6H] | 3.66 |
| YSPRRIRGSPRYSPRHSRSRSRT [S6I] | 3.22 |
| YSPRRKRGSPRYSPRHSRSRSRT [S6K] | 3.01 |
| YSPRRLRGSPRYSPRHSRSRSRT [S6L] | 2.65 |
| YSPRRMRGSPRYSPRHSRSRSRT [S6M] | 3.56 |
| YSPRRNRGSPRYSPRHSRSRSRT [S6N] | 3.97 |
| YSPRRPRGSPRYSPRHSRSRSRT [S6P] | 4.39 |
| YSPRRQRGSPRYSPRHSRSRSRT [S6Q] | 4.33 |

| Variant | protein stability index |
| --- | --- |
| YSPRRRRGSPRYSPRHSRSRSRT [S6R] | 4.01 |
| YSPRRTRGSPRYSPRHSRSRSRT [S6T] | 4.02 |
| YSPRRVRGSPRYSPRHSRSRSRT [S6V] | 3.09 |
| YSPRRWRGSPRYSPRHSRSRSRT [S6W] | 3.43 |
| YSPRRYRGSPRYSPRHSRSRSRT [S6Y] | 3.29 |
| YSPRRSAGSPRYSPRHSRSRSRT [R7A] | 2.97 |
| YSPRRSCGSPRYSPRHSRSRSRT [R7C] | 1.95 |
| YSPRRSDGSPRYSPRHSRSRSRT [R7D] | 3.22 |
| YSPRRSEGSPRYSPRHSRSRSRT [R7E] | 2.15 |
| YSPRRSFGSPRYSPRHSRSRSRT [R7F] | 2.43 |
| YSPRRSGGSPRYSPRHSRSRSRT [R7G] | 2.47 |
| YSPRRSHGSPRYSPRHSRSRSRT [R7H] | 2.61 |
| YSPRRSIGSPRYSPRHSRSRSRT [R7I] | 1.66 |
| YSPRRSKGSPRYSPRHSRSRSRT [R7K] | 3.77 |
| YSPRRSLGSPRYSPRHSRSRSRT [R7L] | 2.03 |
| YSPRRSMGSPRYSPRHSRSRSRT [R7M] | 2.47 |
| YSPRRSNGSPRYSPRHSRSRSRT [R7N] | 2.92 |
| YSPRRSPGSPRYSPRHSRSRSRT [R7P] | 2.91 |
| YSPRRSQGSPRYSPRHSRSRSRT [R7Q] | 3.54 |
| YSPRRSSGSPRYSPRHSRSRSRT [R7S] | 3.4 |
| YSPRRSTGSPRYSPRHSRSRSRT [R7T] | 3.13 |
| YSPRRSVGSPRYSPRHSRSRSRT [R7V] | 2.24 |
| YSPRRSWGSPRYSPRHSRSRSRT [R7W] | 1.95 |
| YSPRRSYGSPRYSPRHSRSRSRT [R7Y] | 3.38 |
| YSPRRSRASPRYSPRHSRSRSRT [G8A] | 4.22 |

| Variant | protein stability index |
| --- | --- |
| YSPRRSRCSPRYSPRHSRSRSRT [G8C] | 2.98 |
| YSPRRSRDSPRYSPRHSRSRSRT [G8D] | 3.45 |
| YSPRRSRESPRYSPRHSRSRSRT [G8E] | 3.44 |
| YSPRRSRFSPRYSPRHSRSRSRT [G8F] | 2.13 |
| YSPRRSRHSPRYSPRHSRSRSRT [G8H] | 3.55 |
| YSPRRSRISPRYSPRHSRSRSRT [G8I] | 3.46 |
| YSPRRSRKSPRYSPRHSRSRSRT [G8K] | 3.98 |
| YSPRRSRLSPRYSPRHSRSRSRT [G8L] | 3 |
| YSPRRSRMSPRYSPRHSRSRSRT [G8M] | 3.19 |
| YSPRRSRNSPRYSPRHSRSRSRT [G8N] | 3.7 |
| YSPRRSRPSPRYSPRHSRSRSRT [G8P] | 3.5 |
| YSPRRSRQSPRYSPRHSRSRSRT [G8Q] | 3.53 |
| YSPRRSRRSPRYSPRHSRSRSRT [G8R] | 4.58 |
| YSPRRSRSSPRYSPRHSRSRSRT [G8S] | 4.32 |
| YSPRRSRTSPRYSPRHSRSRSRT [G8T] | 3.79 |
| YSPRRSRVSPRYSPRHSRSRSRT [G8V] | 3.31 |
| YSPRRSRWSPRYSPRHSRSRSRT [G8W] | 2.25 |
| YSPRRSRYSPRYSPRHSRSRSRT [G8Y] | 3.05 |
| YSPRRSRGAPRYSPRHSRSRSRT [S9A] | 3.94 |
| YSPRRSRGCPRYSPRHSRSRSRT [S9C] | 1.83 |
| YSPRRSRGDPRYSPRHSRSRSRT [S9D] | 3.99 |
| YSPRRSRGEPRYSPRHSRSRSRT [S9E] | 3.71 |
| YSPRRSRGFPRYSPRHSRSRSRT [S9F] | 3.35 |
| YSPRRSRGGPRYSPRHSRSRSRT [S9G] | 4.24 |
| YSPRRSRGHPRYSPRHSRSRSRT [S9H] | 3.16 |

| Variant | protein stability index |
| --- | --- |
| YSPRRSRGIPRYSPRHSRSRSRT [S9I] | 3.1 |
| YSPRRSRGKPRYSPRHSRSRSRT [S9K] | 3.83 |
| YSPRRSRGLPRYSPRHSRSRSRT [S9L] | 3.38 |
| YSPRRSRGMPRYSPRHSRSRSRT [S9M] | 3.07 |
| YSPRRSRGNPRYSPRHSRSRSRT [S9N] | 4.23 |
| YSPRRSRGPPRYSPRHSRSRSRT [S9P] | 3.86 |
| YSPRRSRGQPRYSPRHSRSRSRT [S9Q] | 4.24 |
| YSPRRSRGRPRYSPRHSRSRSRT [S9R] | 4.37 |
| YSPRRSRGTPRYSPRHSRSRSRT [S9T] | 3.74 |
| YSPRRSRGVPRYSPRHSRSRSRT [S9V] | 3.8 |
| YSPRRSRGWPRYSPRHSRSRSRT [S9W] | 2.29 |
| YSPRRSRGYPRYSPRHSRSRSRT [S9Y] | 3.43 |
| YSPRRSRGSARYSPRHSRSRSRT [P10A] | 4 |
| YSPRRSRGSCRYSPRHSRSRSRT [P10C] | 3.45 |
| YSPRRSRGSDRYSPRHSRSRSRT [P10D] | 4.25 |
| YSPRRSRGSERYSPRHSRSRSRT [P10E] | 3.6 |
| YSPRRSRGSFRYSPRHSRSRSRT [P10F] | 3.07 |
| YSPRRSRGSGRYSPRHSRSRSRT [P10G] | 3.37 |
| YSPRRSRGSHRYSPRHSRSRSRT [P10H] | 4.38 |
| YSPRRSRGSIRYSPRHSRSRSRT [P10I] | 3.41 |
| YSPRRSRGSKRYSPRHSRSRSRT [P10K] | 4.4 |
| YSPRRSRGSLRYSPRHSRSRSRT [P10L] | 3.61 |
